This assay concerns the target pCMV-HA-H (HA-H), hemagglutinin (H) protein of Peste des petits ruminants virus with HA tag (Peste des petits ruminants virus). As to the kind of experiment: SPR; […]; Biacore 3000, 25 °C, HBS-EP (10 mM HEPES pH 7.4, 150 mM NaCl, 3 mM EDTA, 0.005% P20); […].

The text below walks through data of PMC5778702.

For orientation: Kd means the constant that tells how readily two partners part at equilibrium. Read a low Kd as a tighter complex. A word on the koff: it is the rate constant with which the complex falls apart. By kon is commonly meant the rate constant with which the complex forms. The low end stands for slower complex formation, the high end for faster complex formation. “pCMV-HA-F (HA-F), fusion (F) protein of Peste des petits ruminants virus with HA tag (natural protein)” came in with a Kd of 19.1 nM, a koff of 0.000937 s⁻¹ and a kon of 49100 M⁻¹ s⁻¹.

In the case of “pCMV-HA-HRA (HA-HRA), heptad repeat region A of the PPRV F protein with HA tag (domain or fragment)”, the Kd amounted to 108000 nM, the koff was 0.00414 s⁻¹ and the kon is 38.2 M⁻¹ s⁻¹.

Take “pCMV-HA-HRB (HA-HRB), heptad repeat region B of the PPRV F protein with HA tag (domain or fragment)”: the Kd is 260 nM, the koff is 0.00299 s⁻¹ and the association rate constant (kon) was 11500 M⁻¹ s⁻¹.
